Test results reported in the DeepSol protein solubility set.

Assay: soluble on expression in E. coli; label from the status in PepcDB or PDB records

## SNPAAEAEFNILLATDSYKVTHYKQYPPNTSKVYSYFECREKKTENSKLRKVKYEETVFYGLQYILNKYLKGKVVTKEKIQEAKDVYKEHFQDDVFNEKGWNYILEKYDGHLPIEIKAVPEGFVIPRGNVLFTVENTDPECYWLTNWIETILVQSWYPITVATNSREQKKILAKYLLETSGNLDGLEYKLHDFGYRGVSSQETAGIGASAHLVNFKGTDTVAGLALIKKYYGTKDPVPGYSVPAAEHSTITAWGKDHEKDAFEHIVTQFSSVPVSVVSDSYDIYNACEKIWGEDLRHLIVSRSTQAPLIIRPDSGNPLDTVLKVLEILGKKFPVTENSKGYKLLPPYLRVIQGDGVDINTLQEVCVLY
  soluble on expression in E. coli: not soluble

## MGSDKIHHHHHHMTTDYRLTSDADREAFYQLYQYAFNNHDTPARRRFFMDRYQHGWIYGRHDHGQLVSGLYSLPLAVNFHGVTYRMNGIGDVMSAPEYAGQGGAGQLLTTALTEMAANHVTLSYLAPFAYGYYRRFGYEHVFNHAHQVMAAPDLPRVKPTDWSGTITRYGNDGLAQINDFYARQPQNQCGGLIRPAWWQHYLTLKHHWSVAIYRNAAANIEGYLIYERQATNFAIQEWVTSTPTAFERLANFITKHGTTFETFSYDSPSATNGLDLLADPYRLKVTVQPYMMARIVDLYDFIKRYPFLTDIQPIRLAVSDATLPANQGIWSLTRHNGQVTLNRVSDQLTGPADIQLTIQQLTTACFGTQSLARAYQHGLITGDVNAINRLDTSLVKERPALIDYF
  soluble on expression in E. coli: not soluble

## MTVSPIDPVKLEKLAEVAIKVGLQLQKDQDLVITAPLAALPLVRLLTKHAYIAGGGLVTTFYSDEETTLSRYRHASDANFDRASGWLYEGMAKAYANGAARLAIAGDNPMLLAEEDPAKVARANKANSTAYKPALEKISNFDINWNIISYPNPSWAKQVFPGLTEDEAVRKLADAIFAASRVDVADPVAAWAQHNANLAKRSAWLNGERFSALHFTGPGTDVKIGLADGHEWHGGASMAKNGVTCNPNIPTEEVFTTPHALRVDGYVSSTKPLSHQGTLIDDIQVKFEAGRIVEAKASKGEAVLNKVLDTDEGARRLGEVALVPHSSPISASGILFYNTLFDENASCHIALGQCYSKCFLDGASLSQDQIKAQGGNSSLIHIDWMIGSNKVDIDGVKPDGSTVPVMRKGEWA
  soluble on expression in E. coli: not soluble

## MVQLDGGQFEMGTKATDGKDGESPVMQVKVLPFAIDKYPVTNRDFREFVRAKKYKTEAEAFGWSFVFEDFVSEELKKKVTQKLESAPWWLPVERAFWRQVSNLSVPLLLSGGSKGLFAAE
  soluble on expression in E. coli: not soluble

## SIHSMDKPIESKEGNVSVGKFKLSDSSINNPEEIISVPSSTTEIEKVEMKPGRGEGLNPELLPASVSELLIPSPFQPQIPDGNNSSVEFHPSKVVLIGTAHVSEKSVNEVRSAIRNLKPDIVAVELCRARYDSLKGNVPETNQVPIKEILTEGKVYYYLVHWLLAYVQKKIGEDMGVKPGSEMISAIEEAEASGAKIALIDRDIQVTLQRFWGRMKFTEKIKMLGSLIGGLIGIGKGAEIDIDQITQQDVVTALVSELREFAPTAAETLIDERDAYLAGSILRTAAGGNKTIVAVIGAGHKPGVINYLENPKSLPPLNSLMQIPKKR
  soluble on expression in E. coli: not soluble

## MEILQFIGYGNMAQAILEGAHEILSKRFILEITGRNPEKIAPFLQEKNIQAQIVPYKDAIDIHQKFVFLLFKPYNLKDFNYQGQAKSVLSALAGVGFKALSDAIDSLHYLKCMPNIASKFALSSTAVCEKSPMPLISQKALSVIESFGNCVRVGHEELVDASVATNGSALAFLSLVANSLKDAGIREGLNARGSLELVKMSFKGFAKLLEKERPEMIIEQICTPKGATIEGLSVLEKKGVRGAFIEACHKSVKKMRLLEHHHHHH
  soluble on expression in E. coli: not soluble

## DLPGVVIFLHGVNDPGASYESVETGLCQGVNERLDRPDLVPGRYGGKYKEAGNVPYEKRDSDQKVILDDPDTYLYRRDASDPKTHSLLIPFYWGHRAAPDQIKRDDAGDPFRMRNQFQDINGNRLDRHFAKAGGFIANATNNIPDVYGEGFRPNLKSIALETFKPDNALYFGHSPARHYCVLAAHRLAMLIREIRRVSPDETITIMGHSQGTIVTLLAQALLVDGGDRCADTFIMVDTPYCVLPGNTPKDQDTFSTLVGIVTAITNMPHTQPAMSELRDAKTYCGRSGSRWLPTQGIRKNKVGSMTVFPERDNRGKVYLYFCPDDTTVSLDDVQ
  soluble on expression in E. coli: not soluble

## MKKELLTRFMEKRIVELKKEQRNGTAHVYQSTLNRLKNFMNGREITFSQLTPEWLALFEQKLLADQLKWNTISTYMRMLRSVYNQALERGVATYVPRLFNKVHTGIDCPVKRAVSPEVICRLMTDRKPLPGKLAFSRDLFVLLFLLRGMPFVDLAFLRRCDLQGNVITYHRRKTSRKLTVVVGKEAMEIIQKYMYAIPDSPYLFPIIQNPGKDEYGQYARMLRLQNYRLTQVANILGIRDRLSTYTARHTWATTALRQNYNSSLICDAMGHSSVKVTETYFQPYRDDEVNRMNSSLITYILSKKKRGTDKKIRS
  soluble on expression in E. coli: not soluble

## MNTYFDIPHRLVGKALYESYYDHFGQMDILSDGSLYLIYRRATEHVGGSDGRVVFSKLEGGIWSAPTIVAQAGGQDFRDVAGGTMPSGRIVAASTVYETGEVKVYVSDDSGVTWVHKFTLARGGADYNFAHGKSFQVGARYVIPLYAATGVNYELKWLESSDGGETWGEGSTIYSGNTPYNETSYLPVGDGVILAVARVGSGAGGALRQFISLDDGGTWTDQGNVTAQNGDSTDILVAPSLSYIYSEGGTPHVVLLYTNRTTHFCYYRTILLARAVAGSSGWTERVPAYSAPAASGYTSQVVLGGRRILGNLFRETSSTTSGAYQFEVYLGGVPDFESDWFSVSSNSLYTLSHGLQRSPRRVVVEFARSSSPSTWNIVMPSYFNDGGHKGSGAQVEVGSLNIRLGTGAAVWGTGYFGGIDNSATTRLATGYYRVRAWI
  soluble on expression in E. coli: soluble

## MAKTLGLHILADLYGVDADKIDRVEDIRELLEGAVKYANLTKISSHYYQFQPHGATGVVLLAESHISIHTWPEHGLATVDVYTCGDPSKAYRAMDYIITQLNPKRIDKQVHERGIVEEESNQSEAEKLRSILLQV
  soluble on expression in E. coli: soluble

## MGSDKIHHHHHHMGIRSHLAIAAGKTSQWVLQTFFKGGSSYPGKLALKIDPKILDTLAKDYEIVVVTGTNGKTLTTALTVNILRQEFDEVLTNPTGANMEQGIVSTFLNAKAKKGQKKFAVLEIDEASLSRVTKYIQPKLFVFTNIFRDQMDRYGEIYTTYRLIMEGAAAAPEATILCNGDSPIFNSKETVNPRKYYGFNHLPPKEQLAHYNTDGVLCPKCNHILHYKMITYANLGDYYCPNCGFKRPELDVQLTEMVRMDNTSADFVIDGEEYGIAVGGMYNVYNALAATAVAEYYQVAPDKIRAGLAYDEKVFGRQETIKVGDKECTLVLVKNPVGLNQVIDMMGLAPYSFSLVSLLNANYADGIDVSWIWDGNHEAFADMDIPKVIAGGDRHEDMALRLKVAGIPEEKLLEIADLEQVISEIKTLPTDHVYILATYTAVLQLRKSLTAQGYIQGGMNGV
  soluble on expression in E. coli: not soluble

## MSLENVTMGFWYVSPRRGPHRTTRQISAGTWEEVRPNYTTPVADAMDRLMKTTPEDIAGRLLLLHGPPGTGKTSALRTLARSWRDWCQVDCVLDPERLFSDVGYLMDIAIGEEDGTGKGRWRLLLLEDCDELIRGEAKHTAGQALSRLLNLTDGLLGQGRNVLVGVTTNEDLERLHPAVVRPGRCLARIEVGPLTRREAVNWLGTEEGVGREGATLAELYALRRGTSPTSLPEPREGAEGHHHHHH
  soluble on expression in E. coli: soluble

## MLPLPWWMLGVGPEEEADESSDYDMVDGHSIEVQESVPTTPVSVFHTPSQSSIIDISDQLVDLPTFLKVAKRRSSTVLETATPAKTPKIQLSERRRKFQRNDTEVMIKTGEPVVDCDETLGLNWLFDTDYPRDAGSGDLLNSTFRIDHRNHGEGTSQITESPKNRDFPLFFSSFDDTTVLFNTTIAGDIDVNERNQASGDWIFRKDKSPTNDPIENDQETDEKTKSELGDGGEIVFKEPVQSTKKTRGRKRGTSVRIEKLSTSRRTSAKKKEEKQKETETFDADKNENPSTPTAPPTMTRRHTPSRKAKTNRTFRL
  soluble on expression in E. coli: not soluble

## RVASNLDNKARVTELFNSAYSILTEVEKLAQEGKMSEPEAKALATRLMRNNLYKDNEYVYVADENMTFVATPLDPQLHDTSFHDFKDGKGNSVGR
  soluble on expression in E. coli: not soluble

## MLDPARSYDLIGDVHGCALTLEHLLDRLGYHKQAGVWRHPSRMAVFLGDIIDRGPRIRESLHIVHDMVEAGQALCIMGNHEFNALGWSTPAAEGSGKQFVREHTPRHARLIHETLTQFEQHPGDWHDFLQWFYELPLFVDAGRFRVVHACWDAGLIAPLRQQYPNGCIDREFLQSAAVPDSFACTAFDRLLRGTDMRLPHGLTMTSGDGLTRAFFRTKFWEDDPQTYGDIVFQPDALPEPVARTPLSPAEKNSLLRYGAEEPMLFVGHYWRSGKPAPIRPNLACLDYSAVLYGKLAAYRLDQETRLDPNKFVWVDVERPEVVRLEHHHHHH
  soluble on expression in E. coli: not soluble

## MAHHHHHHMEPHMTSLVLRRDLSLEVPKLLIGAVQPYQTLAGPALTTSFLHQPDLLPFQRTAFSHAAVAPLYFHTLLHTLAEFAETPRAVQYSAVKLRHAPKADFWDSVGTLNCFYYSAHAPYGAPVEASVLDQHPAMGAVELVRPGHRMESDVKLTLFNDSHQPIASMLMTGPNGAPRETDDDAVESSQGTSSTSPHARTAFPYVAPPTKETTSASDCLSAVMIGGTRVYGGLYGDLMPMESGGGFGQRACYRVEDAAAYSPSLDARSRVSGTEAAAGERTASSSASTVMPPWVLYDCVQRFFLRLHRSGIFGGDAAVAPTEGWRVSAHHVVQTEDAVFGVPVEVVCAVPRVYPSYRLPPWRHRLGLPAIPNGAPPCVCLRCETRQGGRLVSTGVYFFNRW
  soluble on expression in E. coli: soluble

## MMLITTSHRPTRRTRSFGHDLERVFPNSLYLTRGKKTIQELLMEAYDRGYERLLILNVWKGNPLKMTFIKVHPEDWGYLGYLYLHGIKLQREMGFKGLNPIREDMPLVVTTAKRVGWDHIAFAQVFAELTTGKFVPRGDKSLTYIADKYDTDVIAVIERHPRGMVINFYRLDVTKDRPVGPLINVKIWIMEDGRRWDYKEALGIKVPRREKGEGQESSSENRDLEHHHHHH
  soluble on expression in E. coli: soluble

## GPGSMAVGASSRTAQRTPARERRQIIPPDVSGQFRVTTFLSLDAFALQHFTLDDHSATGKEGRMFRAFGVTTWAPRIWDEGVSGVFLDLRGAYNYWKRADDQAQLVFDSLVAWIGALEAERDPTDRFMNLGRILLQAFRMQLMMASDPGIPVFNILARPCTAVHEADTFARTIQIPLERRGTQISLRCQLCHVTCP
  soluble on expression in E. coli: not soluble

## MGSDKIHHHHHHMILMRISIKGLGISGLYLYERLKQSGFDVTAFDVRRRDFYIPCAYATNFNLMKPFMSRIGIDFDNYVLFRSETITMSGENGSEIEFPSAGLVTFDRNGLQRDMMNRIEMETETKADLVVDATGISRSYLGRINGDLTYYTKEYLTDHVIHRDFYFLFLNRGVGYLWEFPLDRGHFHVGIGSIRRDDLNRIDRYNRIRITGRRIRMKPLFEVASIGNIVGIGESVGTVSPLTGEGILPSIESAELLYQAISDKSDPNEAIRLYLKKLNTSFSHYYKLSDFVRKVQTGKLLRPSNIRYASLITKDMKHFGIDFSLGKAVRALIQ
  soluble on expression in E. coli: not soluble

## MKLKIGIVCYPTVGGSGVVATELGKLLAERGHEIHFISSSMPFRLNKVYGNIYYHEVSVNQYSVFQYPPYDLALASKIAEVAKRERLDVLHAHYAVPHAVCAVLARQMVGELPIITTLHGTDITVLGYDPSLSDMIKFGIEQSDIVTAVSDALARQTYELLDVQATIHTVYNFVDERVYRRREAGHLRREYGIRDDERVVIHVSNFRKVKRVPDVVRAFAIVRRHVPAKLLLVGDGPEMTVVCRLVKELGLQDDVRFLGKQDKLEELYSISDVMMLLSEKESFGLVLLEAMACGVPCIGTAIGGIPEVIEDGKTGFLCPLGDVKEAARQAMALLTDCRLHAEMARQAVQTVERKFRSADIVGQYEQLYASLAARKVKR
  soluble on expression in E. coli: not soluble
